Results on one molecule are retold here after US20240261333A1 (published 2024).

What all share (assay): co-IP with anti-FLAG, C-FLAG B3GNT2, mass spectrometry
Test [1] deals with T1, SRSF6 (human, UniProt Q13247 1-344).
T1 construct: also called NP_006266.2
T1 sequence (looked up): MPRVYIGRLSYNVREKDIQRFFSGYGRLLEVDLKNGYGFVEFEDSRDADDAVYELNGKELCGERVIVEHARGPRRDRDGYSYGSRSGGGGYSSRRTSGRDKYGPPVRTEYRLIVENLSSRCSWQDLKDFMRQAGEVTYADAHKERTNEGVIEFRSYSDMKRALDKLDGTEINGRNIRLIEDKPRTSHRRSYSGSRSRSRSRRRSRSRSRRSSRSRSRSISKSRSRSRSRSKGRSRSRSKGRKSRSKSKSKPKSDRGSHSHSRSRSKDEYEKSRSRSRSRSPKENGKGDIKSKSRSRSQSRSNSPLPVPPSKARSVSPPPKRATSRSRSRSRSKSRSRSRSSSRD
How it is done:
(§1) Cells were plated in 10-cm cell culture dishes and grown to 60-80% confluency. For each condition, two biological replicates were harvested for co-IP. Cells were washed with PBS and 4 mL of lysis buffer (20 mM HEPES, 1% Triton X-100, 150 mM NaCl, 1 mM EDTA, and 10% glycerol) containing protease inhibitor cocktail was added. Cells were scraped and lysate was incubated at 4° C. under rotary agitation for 1 h. Lysate was centrifuged at 14,000×g for 10 min at 4° C. Supernatant was transferred to a new tube and an aliquot was taken as the input. […] For Western blots, 10 μg/mL Chicken Anti-FLAG (Aves labs ET-DY100) and IgY control (R&D Systems AB-101-C) antibodies were biotinylated (Thermo Fisher Scientific 90407) and added to the respective conditions. Lysates with antibodies were incubated at 4° C. under rotary agitation overnight. For each mL of lysate, 50 μL of Pierce Protein A/G Magnetic Beads (Mass spectrometry; Thermo Fisher Scientific 88803) or Pierce Streptavidin Magnetic Beads (Western blot; Thermo Fisher Scientific 88817) was washed twice with lysis buffer. Lysates with antibodies were added to the beads and incubated at 4° C. under rotary agitation for 4 h. Beads were washed with lysis buffer 3 times and resuspended in lysis buffer for storage.
(§2) Magnetic beads were resuspended in 100 mM Tris pH 7.8, reduced, alkylated and digested with trypsin at 37° ° C. overnight. This solution was subjected to solid phase extraction to concentrate the peptides and remove unwanted reagents followed by injection onto a Shimadzu HPLC with fraction collector. Eight fractions were collected and after concentration were injected on a Waters NanoAcquity HPLC equipped with a self-packed Aeris 3 μm C18 analytical column 0.075 mm by 20 cm, (Phenomenex). Peptides were eluted using standard reverse-phase gradients. The effluent from the column was analyzed using a Thermo Orbitrap Elite mass spectrometer (nanospray configuration) operated in a data dependent manner for 54 minutes. The resulting fragmentation spectra were correlated against the known database using Proteome Discover 1.4 (Thermo Fisher Scientific).

Test [2] concerns the target P0AA25.2 (UniProt P0AA25 2-109 = thioredoxin). How it is done:
as §1, §2

Test [3] concerns the target T2, MMS19 (human, UniProt Q96T76-9 2-987, limits assumed).
T2 construct: also called NP_001276332.1 (+9)
T2 sequence (looked up): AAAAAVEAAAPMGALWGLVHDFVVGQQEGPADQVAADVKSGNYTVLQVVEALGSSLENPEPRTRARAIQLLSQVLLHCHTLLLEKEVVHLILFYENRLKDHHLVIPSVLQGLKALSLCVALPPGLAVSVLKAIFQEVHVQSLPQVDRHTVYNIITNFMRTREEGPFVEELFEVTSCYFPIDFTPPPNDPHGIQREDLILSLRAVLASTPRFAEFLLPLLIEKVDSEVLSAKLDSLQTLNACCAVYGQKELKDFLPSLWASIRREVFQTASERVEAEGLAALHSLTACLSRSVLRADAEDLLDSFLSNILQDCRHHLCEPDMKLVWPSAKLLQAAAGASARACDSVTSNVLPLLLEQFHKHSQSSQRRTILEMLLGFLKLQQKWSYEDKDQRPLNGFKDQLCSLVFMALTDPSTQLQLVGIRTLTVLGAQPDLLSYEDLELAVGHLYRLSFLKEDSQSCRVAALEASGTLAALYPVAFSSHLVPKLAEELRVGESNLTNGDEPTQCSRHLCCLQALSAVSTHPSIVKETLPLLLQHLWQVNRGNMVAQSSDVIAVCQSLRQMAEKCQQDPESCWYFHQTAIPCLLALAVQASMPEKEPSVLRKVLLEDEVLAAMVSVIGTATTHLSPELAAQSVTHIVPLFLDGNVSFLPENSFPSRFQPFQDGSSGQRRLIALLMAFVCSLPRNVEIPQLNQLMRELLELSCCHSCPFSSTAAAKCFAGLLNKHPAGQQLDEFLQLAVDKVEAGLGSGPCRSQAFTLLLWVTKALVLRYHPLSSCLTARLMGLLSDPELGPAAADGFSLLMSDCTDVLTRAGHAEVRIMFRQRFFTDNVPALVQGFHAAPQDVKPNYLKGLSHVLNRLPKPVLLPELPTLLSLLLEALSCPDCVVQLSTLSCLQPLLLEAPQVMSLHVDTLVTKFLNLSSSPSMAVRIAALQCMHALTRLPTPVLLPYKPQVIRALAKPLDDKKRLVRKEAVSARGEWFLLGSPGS
How it is done: as §1, §2

Chain of P0AA25.2 (P0AA25 2-109, one chain of several): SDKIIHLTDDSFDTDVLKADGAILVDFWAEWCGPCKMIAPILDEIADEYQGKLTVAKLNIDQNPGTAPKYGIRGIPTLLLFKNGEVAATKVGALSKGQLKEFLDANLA

B1: C-terminal FLAG tagged B3GNT2 (enzyme, human, UniProt Q9NY97 1-397, looked up)
chain: MSVGRRRIKLLGILMMANVFIYFIMEVSKSSSQEKNGKGEVIIPKEKFWKISTPPEAYWNREQEKLNRQYNPILSMLTNQTGEAGRLSNISHLNYCEPDLRVTSVVTGFNNLPDRFKDFLLYLRCRNYSLLIDQPDKCAKKPFLLLAIKSLTPHFARRQAIRESWGQESNAGNQTVVRVFLLGQTPPEDNHPDLSDMLKFESEKHQDILMWNYRDTFFNLSLKEVLFLRWVSTSCPDTEFVFKGDDDVFVNTHHILNYLNSLSKTKAKDLFIGDVIHNAGPHRDKKLKYYIPEVVYSGLYPPYAGGGGFLYSGHLALRLYHITDQVHLYPIDDVYTGMCLQKLGLVPEKHKGFRTFDIEEKNKNNICSYVDLMLVHSRKPQEMIDIWSQLQSAHLKC
notes: FLAG-tagged ORF overexpressed in A375 cells; pulled down from the lysate with mouse anti-FLAG; also called C-FLAG B3GNT2; C-term flag; not shown: C-terminal FLAG tag
B1: the “co-IP/MS count, C-term flag” value in test [1] turned out to be 4; in test [2], 7; in test [3] it was 0.
